Measurements taken from publication doi:10.1101/2024.06.16.599208, “A transcription-driven microgel network poised near the sol-gel transition”.

Molecular target: SAF-A SPRNK domain (SPRY/PNK) WT (UniProt Q00839 221-679)
Test: EMSA; 8 mM HEPES pH 7.5, 60 mM KOAc, 16 mM MgOAc; 1 h on ice; 0.125 uM RNA, 0-8 uM protein; 7% acrylamide gel; n=3
Details: protein: recombinant; (nickel IMAC); label: DY681

Chain of SAF-A SPRNK domain (SPRY/PNK) WT (Q00839 221-679): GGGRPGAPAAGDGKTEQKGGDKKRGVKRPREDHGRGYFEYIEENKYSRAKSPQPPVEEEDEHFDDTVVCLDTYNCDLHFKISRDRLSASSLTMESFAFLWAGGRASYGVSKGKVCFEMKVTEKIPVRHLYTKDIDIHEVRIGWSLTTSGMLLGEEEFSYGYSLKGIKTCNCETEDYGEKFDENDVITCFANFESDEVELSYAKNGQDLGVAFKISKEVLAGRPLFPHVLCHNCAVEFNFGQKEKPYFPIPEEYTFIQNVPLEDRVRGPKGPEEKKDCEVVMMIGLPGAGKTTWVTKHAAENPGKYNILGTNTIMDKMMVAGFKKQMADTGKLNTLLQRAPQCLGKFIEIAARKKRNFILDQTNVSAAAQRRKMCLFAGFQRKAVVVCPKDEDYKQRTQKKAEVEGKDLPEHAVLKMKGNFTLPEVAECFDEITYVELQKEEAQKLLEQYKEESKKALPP

Binder: AAAAAAAAAAAAAAAAAAAA (ssRNA) [oligoA20-DY681]
- binding result: binds
